Results from doi:10.1101/2022.05.16.492059 (bioRxiv, 2022).

Target: the molecule itself
Assay: SEC-MALS

B1: PGL-3 (1-452) (domain or fragment, C. elegans, UniProt G5EBV6 1-452, looked up)
chain: MEANKRQIVEVDGIKSYFFPHLAHYLASNDELLVNNIAQANKLAAFVLGATDKRPSNEEIAEMILPNDSSAYVLAAGMDVCLILGDDFRPKFDSGAEKLSQLGQAHDLAPIIDDEKKISMLARKTKLKKSNDAKILQVLLKVLGAEEAEEKFVELSELSSALDLDFDVYVLAKLLGFASEELQEEIEIIRDNVTDAFEACKPLLKKLMIEGPKIDSVDPFTQLLLTPQEESIEKAVSHIVARFEEASAVEDDESLVLKSQLGYQLIFLVVRSLADGKRDASRTIQSLMPSSVRAEVFPGLQRSVFKSAVFLASHIIQVFLGSMKSFEDWAFVGLAEDLESTWRRRAIAELLKKFRISVLEQCFSQPIPLLPQSELNNETVIENVNNALQFALWITEFYGSESEKKSLNQLQFLSPKSKNLLVDSFKKFAQGLDSKDHVNRIIESLEKSSSSE
  stoichiometry N: 2
